Results from article PMC9977175 (Science Advances, 2023).

B1: ATG16L1(124 to 247) (domain or fragment, human, UniProt Q676U5 124-247, looked up)
chain: MQMNEAKIAECLQTISDLETECLDLRTKLCDLERANQTLKDEYDALQITFTALEGKLRKTTEENQELVTRWMAEKAQEANRLNAENEKDSRRRQARLQKELAEAAKEPLPVEQDDDIEVIVDET
B2: Trx-tagged ATG16L1(78 to 247) (domain or fragment, human, UniProt Q676U5 78-247, looked up)
chain: NDNQLQEMAQLRIKHQEELTELHKKRGELAQLVIDLNNQMQRKDREMQMNEAKIAECLQTISDLETECLDLRTKLCDLERANQTLKDEYDALQITFTALEGKLRKTTEENQELVTRWMAEKAQEANRLNAENEKDSRRRQARLQKELAEAAKEPLPVEQDDDIEVIVDET
B3: Trx-tagged ATG16L1(78 to 206) (domain or fragment, human, UniProt Q676U5 78-206, looked up)
chain: NDNQLQEMAQLRIKHQEELTELHKKRGELAQLVIDLNNQMQRKDREMQMNEAKIAECLQTISDLETECLDLRTKLCDLERANQTLKDEYDALQITFTALEGKLRKTTEENQELVTRWMAEKAQEANRLN
B4: Trx-ATG16L1(78 to 197) (domain or fragment, human, UniProt Q676U5 78-197, looked up)
chain: NDNQLQEMAQLRIKHQEELTELHKKRGELAQLVIDLNNQMQRKDREMQMNEAKIAECLQTISDLETECLDLRTKLCDLERANQTLKDEYDALQITFTALEGKLRKTTEENQELVTRWMAE

Target: the molecule itself
Assay: SEC-MALS

Stoichiometry N, 2:
B1
B2
B3
B4
